From the supplement of paper PMC9170038 come the findings set out here.

In this data set the test system is MS2 coat protein. In words: apparent KD of MS2 coat protein; designed switch direction (-1 OFF switch, 1 ON switch): -1; higher = weaker reporter binding. The method, boiled down: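 Transcription of designed RNA switches on Illumina chips was done by stalled E. coli RNA polymerase. SNAP-549-labelled MS2 coat protein was then titrated in doubling steps from 0.7 or 1.5 nM to 3 µM, with steps of 0.8–1.5 h at the lowest and 10–20 min at the highest concentration. The per-design median over clusters of curve-fitted normalised fluorescence is reported as apparent KD.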

[1] abbreviates: Eterna round: R95, input ligand: microRNA oligo, concentration not stated.
Where [2] appears, read: input ligand: microRNA oligo, concentration not stated.

Take “AGCGCGUUCUAGGAUAUCCGGUGGGACACAUACGGAGAAGGAGAAACAUGAGGAUCACCCAUGUAUGGAGAUCG [Eternabot (L1) Solution 7] (Eterna round: R97, puzzle: Exclusion 6)”: the “apparent KD of MS2 coat protein” value was 309 nM (input ligand: FMN 200 uM) and 102 nM (input ligand: none).

For the sequence “AGCGGCCGAGGAUAUACAAUCCUCCUGGCAGCCUGUCUGCCACAUGAGGAUCACCCAUGUAGAAGGCGGACCGC [Xelezabi] (puzzle: Exclusion 2)”, the “apparent KD of MS2 coat protein” value under setting [1] came to 128 nM.

Regarding “AGCGGGUUAGGAUAUACCUGGGUAUGAAAAGCCUAACCUCGACAUGAGGAUCACCCAUGUAGAAGGAGCUCGGC [Eternabot (Original) Solution 3] (Eterna round: R97, puzzle: Exclusion 2)”, the “apparent KD of MS2 coat protein” value (input ligand: FMN 200 uM) came out at 91 nM and the “apparent KD of MS2 coat protein” value (input ligand: none) came to 36.9 nM.

“AGCGUGGAGACAGGAUAUGAGAAUAGAUAGAACUCAGAAGGGUCACAUGAGGAUCACCCAUGUAAAGUCUUGAGGCUGAGUGGU [Prohibition 6 - Jieux - Exclusion NG 1] (Eterna round: R96, puzzle: Exclusion NG 1)”: the “apparent KD of MS2 coat protein” value is, setting by setting: (input ligand: FMN 200 uM) 153 nM; under setting [2], 36.4 nM; (input ligand: none) 45.2 nM.

Take “AGCUAGAUAGGAUAUGCCCGGGAUAACAUGAGGAUCACCCAUGUGACCGAAUCAUGUCCAGCAGAAGGGUUUGGGA [Mod of ViennaUCT 9 - Jieux - Exclusion 5] (Eterna round: R97, puzzle: Exclusion 5)”: the “apparent KD of MS2 coat protein” value stood at 34.7 nM (input ligand: FMN 200 uM) and 23.3 nM (input ligand: none).

On to “AGCUAGAUAGGAUAUGCCCGGGAUAACAUGAGGAUCACCCAUGUGACCGAUUCAUGUCCAGCAGAAGGGUUUGGGA [Mod of ViennaUCT 8 - Jieux - Exclusion 5] (Eterna round: R97, puzzle: Exclusion 5)”, for which the “apparent KD of MS2 coat protein” value runs as follows: (input ligand: FMN 200 uM) 17.1 nM; (input ligand: none) 16.7 nM.

Turning to “AGCUAGUCAGGAUAUUCUAAAAAUUACAUGAGGAUCACCCAUGUGAAUGGACAAGGGUGUGAAGAAGGGACUAGCG [Omei Ex5 A11] (Eterna round: R97, puzzle: Exclusion 5)”, the “apparent KD of MS2 coat protein” value runs as follows: (input ligand: FMN 200 uM) 214 nM; (input ligand: none) 540 nM.

Turning to “AGCUAGUCAGGAUAUUCUAAUAAUUACAUGAGGAUCACCCAUGUGAAGAGACAAGGGUGUGAAGAAGGGACUAGCG [Omei Ex5 A1] (Eterna round: R97, puzzle: Exclusion 5)”, the “apparent KD of MS2 coat protein” value (input ligand: FMN 200 uM) came to 188 nM and the “apparent KD of MS2 coat protein” value (input ligand: none) is 600 nM.

Turning to “AGCUAGUCAGGAUAUUCUAAUAAUUACAUGAGGAUCACCCAUGUGAAUAGACAAGGGUGUGAAGAAGGGACUAGCG [Omei Ex5 A5] (Eterna round: R97, puzzle: Exclusion 5)”, the “apparent KD of MS2 coat protein” value is, setting by setting: (input ligand: FMN 200 uM) 58.3 nM; (input ligand: none) 366 nM.

“AGCUAGUCAGGAUAUUCUAUUAAUUACAUGAGGAUCACCCAUGUGAAUGGACAAGGGUGUGAAGAAGGGACUAGCG [Omei Ex5 A13] (Eterna round: R97, puzzle: Exclusion 5)”: the “apparent KD of MS2 coat protein” value is, setting by setting: (input ligand: FMN 200 uM) 394 nM; (input ligand: none) 2080 nM.

Turning to “AGCUCAAAAGUGAGGAUAUCUAGGGUCAAAUGACCGGAGAAGGCACAUGAGGAUCACCCAUGUAACGCCAUGGA [Ceinveusar] (puzzle: Brourd's mod of Exclusion 4)”, under setting [1], the “apparent KD of MS2 coat protein” value is 12.5 nM.

As for “AGCUCUGCAGGAUAUGCCCGGGAUAACAUGAGGAUCACCCAUGUGACUGAUUGUUAUUCUGCAGAAGGGCAUGGGA [JL-EX5-4.15 ViennaUCT mod] (Eterna round: R97, puzzle: Exclusion 5)”, the “apparent KD of MS2 coat protein” value came out at 409 nM (input ligand: FMN 200 uM) and 637 nM (input ligand: none).

Take “AGCUGUGAGUGAGGAUAUCUGCUGUUGUCAGUCGGAGAAGGCGCGGACAGAACAUGAGGAUCACCCAUGUGUAUGGGCGGCCUC [Usatia] (Eterna round: R96, puzzle: Exclusion NG 1)”: the “apparent KD of MS2 coat protein” value was found to be 217 nM (input ligand: FMN 200 uM), 43.6 nM under setting [2] and 85.5 nM (input ligand: none).

Regarding “AGCUGUGGCCGAGGAUAUACACAUGAGGAUCACCCAUGUAGGCGCGGAUACGCGCUAAAAUAAUUGUAGAAGGCGGUCUCAGCA [Eli eng2 - 054] (Eterna round: R96, puzzle: Exclusion NG 2)”, the “apparent KD of MS2 coat protein” value was 3.88 nM (input ligand: FMN 200 uM), 5.92 nM under setting [2] and 10.6 nM (input ligand: none).

Consider “AGCUGUGGCCGAGGAUAUACACAUGAGGAUCACCCAUGUAGGUGCGGAUACUCGCACCAAUAAGUGUAGAAGGCGGUCUCAGCA [Eli eng2 - 057] (Eterna round: R96, puzzle: Exclusion NG 2)”, for which the “apparent KD of MS2 coat protein” value (input ligand: FMN 200 uM) came out at 14.6 nM, the “apparent KD of MS2 coat protein” value under setting [2] turned out to be 13.2 nM and the “apparent KD of MS2 coat protein” value (input ligand: none) worked out at 19.2 nM.

As for “AGCUGUGGCCGAGGAUAUCACAUGAGGAUCACCCAUGUACAUGAUUAAGCCUGGUAACAGGCUCAUGAGAAGGCGGUCUCAGCA [Eli eng2 - 014] (Eterna round: R96, puzzle: Exclusion NG 2)”, the “apparent KD of MS2 coat protein” value by setting is: (input ligand: FMN 200 uM) 12 nM; under setting [2], 13.1 nM; (input ligand: none) 20.6 nM.

On to “AGCUGUGGCCGAGGAUAUCCACAUGAGGAUCACCCAUGUGAAUAGGGAAUUAACCCAUAACCGUGGGAGAAGGCGGUCUCAGCA [Eli eng2 - 049] (Eterna round: R96, puzzle: Exclusion NG 2)”, for which the “apparent KD of MS2 coat protein” value was 55.1 nM (input ligand: FMN 200 uM), 48.6 nM under setting [2] and 82.1 nM (input ligand: none).

In the case of “AGCUGUGGCCGAGGAUAUCCAGCCUUAAAUACCGACGUAUAGUCGGACAUGAGGAUCACCCAUGUGGAGAAGGUGGUCUCAGCA [Eli eng2 - 041] (Eterna round: R96, puzzle: Exclusion NG 2)”, the “apparent KD of MS2 coat protein” value runs as follows: (input ligand: FMN 200 uM) 93.1 nM; under setting [2], 41.8 nM; (input ligand: none) 42.7 nM.

For the sequence “AGCUGUGGCCGAGGAUAUCUAAAACUCAAAACCGAAAUAUAAUCGGACAUGAGGAUCACCCAUGUAGAGAAGGCGGUCUCAGCA [Eli eng2 - 078] (Eterna round: R96, puzzle: Exclusion NG 2)”, the “apparent KD of MS2 coat protein” value under setting [2] came out at 59.4 nM.

As for “AGCUGUGGCCGAGGAUAUCUAACAAUCCUAACCGAAAUAUAAUCGGACAUGAGGAUCACCCAUGUAGAGAAGGCGGUCUCAGCA [Eli eng2 - 074] (Eterna round: R96, puzzle: Exclusion NG 2)”, the “apparent KD of MS2 coat protein” value under setting [2] is 68.1 nM.

Turning to “AGCUGUGGCCGAGGAUAUCUAAUAAUCUCAACCGAAAUAUAAUCGGACAUGAGGAUCACCCAUGUAGAGAAGGCGGUCUCAGCA [Eli eng2 - 067] (Eterna round: R96, puzzle: Exclusion NG 2)”, the “apparent KD of MS2 coat protein” value under setting [2] turned out to be 27.2 nM.

With “AGCUGUGGCCGAGGAUAUCUAGCUUCAAUAACCGAAAUAUAAUCGGACAUGAGGAUCACCCAUGUAGAGAAGGCGGUCUCAGCA [Eli eng2 - 084] (Eterna round: R96, puzzle: Exclusion NG 2)”, under setting [2], the “apparent KD of MS2 coat protein” value turned out to be 22.3 nM.

With “AGCUGUGGCCGAGGAUAUCUAUCUUCAAUAACCGAAAUAUAAUCGGACAUGAGGAUCACCCAUGUAGAGAAGGCGGUCUCAGCA [Eli eng2 - 091] (Eterna round: R96, puzzle: Exclusion NG 2)”, under setting [2], the “apparent KD of MS2 coat protein” value was found to be 27.3 nM.

In the case of “AGCUGUGGCCGAGGAUAUCUCAUAGUCCCAACCGAAAUAUAAUCGGACAUGAGGAUCACCCAUGUAGAGAAGGCGGUCUCAGCA [Eli eng2 - 071] (Eterna round: R96, puzzle: Exclusion NG 2)”, the “apparent KD of MS2 coat protein” value is, setting by setting: (input ligand: FMN 200 uM) 115 nM; under setting [2], 40.7 nM; (input ligand: none) 151 nM.

As to “AGCUGUGGCCGAGGAUAUCUGAACUUUCAAACCGAAAUAUAAUCGGACAUGAGGAUCACCCAUGUAGAGAAGGCGGUCUCAGCA [Eli eng2 - 061] (Eterna round: R96, puzzle: Exclusion NG 2)”, under setting [2], the “apparent KD of MS2 coat protein” value stood at 10.5 nM.

Consider “AGCUUUUUGCUCGUCUUAUACAUGAGGAUCACCCAUGUAUUGGACCACAUCGAUAGAUGUGGACCAAGAAGCGUGGU [Omdei Mir OFFv1 C4] (Eterna round: R97, puzzle: Sensor, turn-off variant 1)”, for which the “apparent KD of MS2 coat protein” value was 38.6 nM (input ligand: FMN 200 uM) and 39.7 nM (input ligand: none).

Consider “AGCUUUUUGUUCGUCUUAUACAUGAGGAUCACCCAUGUAUUGGACCGCAUCGAUAGAUGUAGACCGAGAAGCAUGGG [Omdei Mir OFFv1 C6] (Eterna round: R97, puzzle: Sensor, turn-off variant 1)”, for which the “apparent KD of MS2 coat protein” value (input ligand: FMN 200 uM) was found to be 63 nM and the “apparent KD of MS2 coat protein” value (input ligand: none) was 55.3 nM.

For “AGCUUUUUGUUUUUGGGUGACAUGAGGAUCACCCAUGUCUUAUGGGCCCAAUAAUAAUAAAAUAAAAGGGACCCACG [-20.8, -41.27, a 31%] (Eterna round: R97, puzzle: Sensor, turn-off variant 1)”, the “apparent KD of MS2 coat protein” value came out at 457 nM (input ligand: FMN 200 uM) and 208 nM (input ligand: none).

As for “AGGACAUGAGGAUCACCCAUGUAGUGAGGUGUAUCCGAAGACGAGGAUAUACAGAGGAAAUAUCUGUAGAAGGUGUAAUAAAAU [Istediso] (Eterna round: R96, puzzle: Exclusion NG 3)”, the “apparent KD of MS2 coat protein” value is, setting by setting: (input ligand: FMN 200 uM) 725 nM; under setting [2], 247 nM; (input ligand: none) 299 nM.

Consider “AGGAGGAGUUCAGGAUAUUCGACAUGAGGAUCACCCAUGUGGGUAAUAUAUAGUAAAGAGAUAGAGAAGAAGGGAAGGGAGGAG [Exclusion NG2] (Eterna round: R96, puzzle: Exclusion NG 2)”, for which the “apparent KD of MS2 coat protein” value is 42.5 nM (input ligand: FMN 200 uM), 23.5 nM under setting [2] and 36 nM (input ligand: none).

For the sequence “AGGCGCUAGUAGGAUAUCUGGAACGGAUUAUAAAGAGAAGGGCUGACAUGAGGAUCACCCAUGUGACCAAUGCG [Eternabot (L1) Solution 50] (Eterna round: R97, puzzle: Exclusion 6)”, the “apparent KD of MS2 coat protein” value (input ligand: FMN 200 uM) stood at 41.2 nM and the “apparent KD of MS2 coat protein” value (input ligand: none) came out at 50.6 nM.
